Measured values as given in the supplement of paper PMC9170038.

System: MS2 coat protein
Assay: apparent KD of MS2 coat protein; designed switch direction (-1 OFF switch, 1 ON switch): 1; higher = weaker reporter binding
Procedure, shortened: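 Normalised cluster fluorescence was curve-fitted, and each design's median over clusters is its apparent KD. Before this, SNAP-549-labelled MS2 coat protein was titrated from 0.7 or 1.5 nM, doubling to 3 µM, over RNA switches transcribed on Illumina chips by stalled E. coli RNA polymerase. Titrations had no input, 200 uM small-molecule ligand, or an oligonucleotide input, and steps lasted 0.8–1.5 h (lowest) to 10–20 min (highest).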

[1] = input ligand: microRNA oligo, concentration not stated
[2] = Eterna round: R95, input ligand: FMN 200 uM
[3] = Eterna round: R95, input ligand: microRNA oligo, concentration not stated
[4] = Eterna round: R95, input ligand: none

Sequence	apparent KD of MS2 coat protein (input ligand: FMN 200 uM) [nM]	apparent KD of MS2 coat protein [1] [nM]	apparent KD of MS2 coat protein (input ligand: none) [nM]	apparent KD of MS2 coat protein [2] [nM]	apparent KD of MS2 coat protein [3] [nM]	apparent KD of MS2 coat protein [4] [nM]
AAAAUGAGUAUAUGAAAACAAGCUUUUUAACAUGAGGAUCACCCAUGUACUCGUCUUAUAAGCAGUCGAAAGACUGC [hsa-mir-208a sensor: 77] (Eterna round: R96, puzzle: Sensor for hsa-mir-208a)	94.8	17.2	96.6	–	–	–
AAAAUGGUAUGUUACAUGAGGAUCACCCAUGUACUCUAAUCUGAGGAUAUGGGAAUGUAGAAGAACCAGAAGGCAGACAUCCAA [AK SSNG3-V2-22.1] (Eterna round: R96, puzzle: Same State NG 3)	149	70.2	86	–	–	–
AAAAUGUGAUGUUACAUGAGGAUCACCCAUGUAGUGACAACUAAGGAUAUCUGAAAAAAAGGAGAGGAGAAGGUAGGAUCACAA [AK SSNG3-V2-16.1] (Eterna round: R96, puzzle: Same State NG 3)	25.7	26.4	33.2	–	–	–
AAACACAGCAUAACGCUGUGACAUGAGGAUCACCCAUGUACACAGGAUAUCAUGGCAUAACGCCAUGAGAAGGGUGAUCAAGAC [Arxeerte] (Eterna round: R96, puzzle: Same State NG 3)	20.5	2.71	55.3	–	–	–
AAACGGCCGAACGGAGGGCCACAUGAGGAUCACCCAUGUACAUAGGAUAUCACGCCAACGAAGCGUGAGAAGGGUGAUUAAAAC [Anriusxees] (Eterna round: R96, puzzle: Same State NG 3)	341	4.64	104	–	–	–
AAAGAAAACAUAGGAUAUGUAACAUGAGGAUCACCCAUGUAUACCUCGUAAGAGAUGAUGGAUGGACAGAAGGAUGAUCUCAGG [Default title] (Eterna round: R96, puzzle: Same State NG 2)	–	111	–	–	–	–
AAAGGAUGAUGUUACAUGAGGAUCACCCAUGUAGUGAUAACUAAGGAUAUCUGUUAAACAAGUUAAGAGAAGGUAGGAUCAUUA [AK SSNG3-V2-8] (Eterna round: R96, puzzle: Same State NG 3)	42.8	35.6	60.8	–	–	–
AAAGUACAUGAGGAUCACCCAUGUCCAAAGAAGUAAGGAUAUACGGAAAGAAAAGAAAAUGUAGAAGGUACAAGAA [Same State 1 #3] (puzzle: Same State 1)	–	–	–	33	65.8	57.6
AAAUAAAACACAGGAUAUGCAGUCAAAACGACGGCAGAAGGGUGAGACAUGAGGAUCACCCAUGUACACAUCCCACGGAUGUGC [Anonised] (Eterna round: R96, puzzle: Same State NG 1)	1060	546	1060	–	–	–
AAAUUACUCCGAGGAUAUGCAUGGCUUUGUGCCGCAGAAGGUGGAUCGACGGACAUGAGGAUCACCCAUGUACACUGUCCUAUA [Gerite] (Eterna round: R96, puzzle: Same State NG 1)	26.4	34.7	46.9	–	–	–
AACAAUCUAUCUGAGGAUAUCAUGAAAUAAACAUGAGGAUCACCCAUGUGCAGGAAAACUGCAUAUGAGAAGGCAGAUAGAUUGU [salish99_ss2_r3_058] (puzzle: Same State 2)	–	–	–	57.7	1020	1580
AACAAUCUAUCUGAGGAUAUCAUGAAAUAAACAUGAGGAUCACCCAUGUGCAGGAAAACUGCAUAUGAGAAGGCAGAUAGAUUUA [salish99_ss2_r3_057] (puzzle: Same State 2)	–	–	–	43.8	638	1000
AACAAUCUAUCUGAGGAUAUCAUGAAAUAAACAUGAGGAUCACCCAUGUGCAGUAAAACUGCAUAUGAGAAGGCAGAUAGAUUGA [salish99_ss2_r3_039] (puzzle: Same State 2)	–	–	–	93.3	1850	1820
AACAAUCUAUCUGAGGAUAUCAUGAUAUAAACAUGAGGAUCACCCAUGUGCAGGAAAACUGCAUAUGAGAAGGCAGAUAGAUUGA [salish99_ss2_r3_031] (puzzle: Same State 2)	–	–	–	43	232	118
AACAGUCGGCGAGGAUAUGGACGUACGGACUAACCCGCGCGGCUCACAUGAGGAUCACCCAUGUUCUAGAAGGCGCCACUGAAA [Xeorendi] (Eterna round: R96, puzzle: Same State NG 2)	13.8	45.3	50.9	–	–	–
AACCAGAGAAAACAACUCUGACAUGAGGAUCACCCAUGUACACAGGAUAUCAGCCCGAAAAGGGCUGAGAAGGGUGGCCGAGUG [Beveat] (Eterna round: R96, puzzle: Same State NG 3)	574	29.2	33.9	–	–	–
AACGGUCGACAAGGAUAUGGACGGACAGGUUUGCCUGUGCGGCUCACAUGAGGAUCACCCAUGUUCUAGAAGGUGUCACCAAGA [Tiinor] (Eterna round: R96, puzzle: Same State NG 2)	36.9	141	259	–	–	–
AACGUGUAGGAAGGAUAUAUUGUUCAAGGGAUUGCAAUCUCUAACAUGAGGAUCACCCAUGUAGAGUAGAAGGUCCACCGCAGG [Eternabot solution 40] (Eterna round: R96, puzzle: Same State NG 2)	14.1	13.5	19.2	–	–	–
AAGUAACAUGAGGAUCACCCAUGUGAGGUGAGCGUAGGAUAUCGAGGAGGAAGGGUAGGUCGAGAAGGACGAGAAG [JR_SS1_Sub096] (puzzle: Same State 1)	–	–	–	127	162	247
AAGUUAAGCUUUUUGUUCUGCCUAUUCUAACAUGAGGAUCACCCAUGUAGUCAGACGACUGCGUGUGUAGUUGAGAU [JR_SHM208A_Sub029] (puzzle: Sensor for hsa-mir-208a)	–	–	–	121	194	111
AAUAACAAUUUAGGAUAUCGACAGCGAAACUCACGAGAAGGAGAUAAGAGGCUGGCCUCGCGCACAUGAGGAUCACCCAUGUCG [Eternabot solution 25] (Eterna round: R96, puzzle: Same State NG 1)	38.1	29.8	41.1	–	–	–
AAUCAACGCCGAGGAUAUCGGCCUACAUGAGGAUCACCCAUGUUGGGACAUAAAUUAAUCUCGGCUGAGAAGGCGGGAGUUGAC [Eternabot solution 38] (Eterna round: R96, puzzle: Same State NG 2)	23	13.3	19.9	–	–	–
AAUUAAGAUCAAGGAUAUCACGUCGAUUAGACGUGAGAAGGUGAUCAUAACAUGAGGAUCACCCAUGUAUUACAUGAAUUAAUU [SSNG1/2-B2] (Eterna round: R96, puzzle: Same State NG 1)	85.7	330	397	–	–	–
